Key:
[1] = target: plasma vitronectin (human (endogenous in plasma; the donor is not stated, anti-human vitronectin antibodies were used))
[2] = target: αIIbβ3 integrin (immobilized) (UniProt P08514); experiment: ELISA; solid-phase binding: αVβ3 or αIIbβ3 coated on microtiter wells (250 ng per well), blocked with BSA; recalcified plasma treated with PDI-CCCC, PDI-AAAA, ERp57-CCCC or BSA and 0.3 mM DTT for 10 min at 37 °C, stopped with 20 mM NEM, diluted 1:100, 1 h; bound vitronectin detected with rabbit anti-vitronectin and anti-rabbit IgG-HRP
[3] = target: αVβ3 integrin (immobilized) (UniProt P06756); experiment: as above
UniProt P06756, sequence (P06756 31-1048, chain 1 of 2): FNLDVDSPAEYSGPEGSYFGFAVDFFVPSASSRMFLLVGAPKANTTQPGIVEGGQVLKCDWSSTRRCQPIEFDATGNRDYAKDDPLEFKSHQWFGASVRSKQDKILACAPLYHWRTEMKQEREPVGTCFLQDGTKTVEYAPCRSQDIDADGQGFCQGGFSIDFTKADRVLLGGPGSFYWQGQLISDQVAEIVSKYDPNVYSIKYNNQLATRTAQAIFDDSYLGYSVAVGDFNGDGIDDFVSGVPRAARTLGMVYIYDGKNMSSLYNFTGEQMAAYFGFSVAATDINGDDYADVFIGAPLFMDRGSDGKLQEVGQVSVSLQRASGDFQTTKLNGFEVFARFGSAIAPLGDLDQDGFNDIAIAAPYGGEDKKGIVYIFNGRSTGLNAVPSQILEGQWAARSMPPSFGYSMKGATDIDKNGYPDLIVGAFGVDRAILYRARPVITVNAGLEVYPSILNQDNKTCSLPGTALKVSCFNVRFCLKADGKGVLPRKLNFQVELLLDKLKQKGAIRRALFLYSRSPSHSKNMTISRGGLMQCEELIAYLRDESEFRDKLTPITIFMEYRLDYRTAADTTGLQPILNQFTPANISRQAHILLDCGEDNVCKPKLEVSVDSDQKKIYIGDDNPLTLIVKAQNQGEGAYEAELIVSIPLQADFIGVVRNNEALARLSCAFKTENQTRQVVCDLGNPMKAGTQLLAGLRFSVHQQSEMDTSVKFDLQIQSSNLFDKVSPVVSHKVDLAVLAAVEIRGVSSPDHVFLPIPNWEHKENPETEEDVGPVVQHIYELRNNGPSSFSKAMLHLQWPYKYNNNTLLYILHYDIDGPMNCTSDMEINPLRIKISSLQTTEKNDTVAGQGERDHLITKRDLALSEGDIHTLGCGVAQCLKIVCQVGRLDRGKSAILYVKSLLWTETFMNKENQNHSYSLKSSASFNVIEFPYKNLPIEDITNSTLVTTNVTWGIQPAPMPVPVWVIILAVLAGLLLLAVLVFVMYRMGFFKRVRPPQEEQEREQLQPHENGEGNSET
UniProt P06756, sequence (P05106 27-718, chain 2 of 2, further chain): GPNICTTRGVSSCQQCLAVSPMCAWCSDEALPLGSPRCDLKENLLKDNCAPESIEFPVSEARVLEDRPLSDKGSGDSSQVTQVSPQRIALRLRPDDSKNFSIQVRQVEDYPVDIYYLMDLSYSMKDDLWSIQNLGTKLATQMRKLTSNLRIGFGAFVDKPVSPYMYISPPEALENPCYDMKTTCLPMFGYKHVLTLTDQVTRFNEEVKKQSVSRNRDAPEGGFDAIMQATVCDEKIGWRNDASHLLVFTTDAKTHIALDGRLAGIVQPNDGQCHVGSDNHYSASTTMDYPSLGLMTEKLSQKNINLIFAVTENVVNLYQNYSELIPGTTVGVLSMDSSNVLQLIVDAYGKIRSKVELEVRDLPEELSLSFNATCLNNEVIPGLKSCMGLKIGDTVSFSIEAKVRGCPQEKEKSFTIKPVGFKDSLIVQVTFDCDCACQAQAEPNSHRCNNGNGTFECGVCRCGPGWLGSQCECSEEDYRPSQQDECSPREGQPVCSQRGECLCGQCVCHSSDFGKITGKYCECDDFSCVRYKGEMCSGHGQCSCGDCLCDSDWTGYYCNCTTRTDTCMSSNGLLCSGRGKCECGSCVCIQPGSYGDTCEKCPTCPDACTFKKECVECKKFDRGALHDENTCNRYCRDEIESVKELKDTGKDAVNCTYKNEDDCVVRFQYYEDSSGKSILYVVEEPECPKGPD

[4] = target: PDI–CACA (human) (UniProt P07237); experiment: pull-down; kinetic trapping: DTT-reduced FLAG-/SBP-tagged PDI or ERp57 variant (500 ug) added to 5 ml recalcified platelet-rich plasma with GPRP, collagen and thrombin, 3 min at 23°, stopped with hirudin and 20 mM NEM; streptavidin-agarose, washes with 500 mM NaCl and 1.5% Triton X-100, eluted with biotin; non-reducing and reducing 1D or 2D SDS-PAGE, Western blot for FLAG and vitronectin; the complex is a mixed disulfide

PDI–CCCC (wild type protein disulfide isomerase) (from UniProt P07237 18-508) (enzyme)
PEG5000-maleimide incorporated into plasma vitronectin after reduction by the enzyme in NEM-pretreated platelet-poor plasma (0 to 5 min at 1 uM; 0.25 to 2.5 uM for 5 min), gel shift on Western blot (moles per mole of vitronectin) [1]: 3.6

PDI-reduced plasma vitronectin (natural protein)
fold increase in bound vitronectin at the highest PDI concentration [2]: > 3 fold | fold increase in bound vitronectin at the highest PDI concentration (15 μM) [3]: 4 fold

plasma vitronectin (natural protein)
stoichiometry N [4]: 1

— article PMC5321760
